Assays:
[1] = target: H6-Smt3-Int^C(N125A)-CysTag(Alexa647)-Trx-H6; test: MST
[2] = target: H6-Int^N(C1A)-mCherry

Kd [1] [nM] | Kd [2] [nM] | koff [2] [s⁻¹] | kon [2] [M⁻¹ s⁻¹] | Substance
22.4 |  |  |  | MBP-Int^N(C1A)-H6 (domain or fragment)
 | 9.2 | 0.00082 | 85000 | SBP-Int^C(N125A)-eGFP (domain or fragment)
